These are literature values, as cited in paper PMC8439649.

As a reminder, the Kd is the equilibrium constant for the complex coming apart.

In the data set the target is mTORC1 (Homo sapiens) (UniProt P42345).

Turning to DEPTOR PDZ (from UniProt Q8TB45), the Kd was 7 µM.
